Assay results from patent publication US7803749B2, “Peptide inhibitors of MKK7 kinase binding to insulin binding proteins” (Xigen SA, priority 2002, dated 2010).
“Also recorded” adds a separate entry of the source. Residues, ends and D or L forms follow the SMILES beside them.

Columns and labels:
[1] = target: T1, MKK7 binding to IB1 (SH3 domain) (Homo sapiens, UniProt Q9UQF2); experiment: Pull-down of 35S-labelled MKK7 with GST-SH3 domain of IB1; details: FIG. 2
T1 construct: the SH3 domains of IB1 and IB2 were subcloned using PCR into the pGEX-4T1 vector in frame with the GST; made in house; host or cells: E. coli
T1 sequence (Q9UQF2 488-549 limits assumed): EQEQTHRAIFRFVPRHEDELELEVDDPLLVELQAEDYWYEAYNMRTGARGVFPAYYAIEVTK
Method: (§1) Effects of the αSH3 peptide on JNK biological activities were then studied. […] In the pull-down experiments, the SH3 domains of IB1 and IB2 were subcloned using PCR into the pGEX-4T1 vector in frame with the GST (Pharmacia). The recombinant proteins were produced in E. Coli. Purification was performed in native conditions using a glutathione-agarose column (Pharmacia). ^35S-labelled MKK7 was then used in classical pull-down experiments.

[2] = target: T2, MKK7 binding to IB2 (SH3 domain) (Homo sapiens, UniProt Q13387); experiment: Pull-down of 35S-labelled MKK7 with GST-SH3 domain of IB2; details: FIG. 2
T2 construct: the SH3 domains of IB1 and IB2 were subcloned using PCR into the pGEX-4T1 vector in frame with the GST; made in house; host or cells: E. coli
T2 sequence (Q13387 604-665 limits assumed): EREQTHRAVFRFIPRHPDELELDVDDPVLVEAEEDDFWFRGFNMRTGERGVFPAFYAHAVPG
Method: as §1

[3] = test system: developing rat cortical neurons; experiment: Incubation of developing rat cortical neurons with peptide (necrotic bodies, neuron number); details: 1 μM, vs control neurons, FIGS. 4A-4F

αSH3: consensus αSH3 sequence SVSVGMPPSPRP, 12 aa
Blocking of the binding of MKK7 to IB1 [1]: efficiently blocks
Blocking of the binding of MKK7 to IB2 [2]: efficiently blocks

CSCC[C@H](NC(=O)CNC(=O)[C@@H](NC(=O)[C@H](CO)NC(=O)[C@@H](NC(=O)[C@H](CO)NC(=O)[C@H](CCCNC(=N)N)NC(=O)[C@H](CCCNC(=N)N)NC(=O)[C@H](CCCNC(=N)N)NC(=O)[C@H](CCC(N)=O)NC(=O)[C@H](CCCNC(=N)N)NC(=O)[C@H](CCCNC(=N)N)NC(=O)[C@H](CCCCN)NC(=O)[C@H](CCCCN)NC(=O)[C@@H](N)CCCNC(=N)N)C(C)C)C(C)C)C(=O)N1CCC[C@H]1C(=O)N1CCC[C@H]1C(=O)N[C@@H](CO)C(=O)N1CCC[C@H]1C(=O)N[C@@H](CCCNC(=N)N)C(=O)N1CCC[C@H]1C(=O)O [TAT-αSH3] (H-RKKRRQRRRSVSVGMPPSPRP-OH)
Toxicity on developing neurons (appearance of residual necrotic bodies) [3]: lacked residual necrotic bodies; also recorded: not toxic
